Several values for one entry are separate records, joined by “and”; a condition that tells them apart may be missing. Equal entries are not always repeated.
Assays:
[1] = target: T1, Ac-Oic-LG˜LL-Ahxh-Ac[C14] (not fully specified)
T1 chain: XLGLL

[2] = target: T2, H-NLys-PLG˜LYT-Ahxh-Hynic (not fully specified)
T2 chain: XPLGLYT

[3] = target: T3, Ac-P-Cha-G˜Hphe-Cit-L-Ahxh-Ac[C14] (not fully specified)
T3 chain: PXGXXL

[4] = target: T4, Ac-PLG˜LYA-Ahxh-Hynic (not fully specified)
T4 chain: PLGLYA

[5] = target: T5, Ac-PLG˜LYT-Ahxh-Ac[C14] (not fully specified)
T5 chain: PLGLYT

[6] = target: T6, Ac-PLG-Hphe-OL-Ahxh-Ac[C14]
T6 chain: PLGXXL

[7] = target: T7, Ac-PLG˜Hphe-YLR-Ahxh-Hynic
T7 chain: PLGXYLR

[8] = target: T8, Ac-POG˜Hphe-LQ-Ahxh-Hynic
T8 chain: PXGXLQ

[9] = target: T9, Ac-PLG˜LRL-Ahxh-Hynic (not fully specified)
T9 chain: PLGLRL

[10] = target: T10, Ac-PL-NLys-LL-dLeu-Ahxh-Ac[C14]
T10 chain: PLXLLL

[11] = target: T11, Ac-PLG˜L-Cha-Ahxh-Hynic
T11 chain: PLGLX

[12] = target: T12, Ac-PRQ˜ITA-Ahxh-Hynic
T12 chain: PRQITA

[13] = target: T13, Ac-P-Cit-G˜Hphe-Cha-A-Ahxh-Ac[C14] (not fully specified)
T13 chain: PXGXXA

[14] = target: T14, Ac-Tic-Cit-G˜Hphe-SA-Ahxh-Hynic
T14 chain: XXGXSA

[15] = target: T15, Ac-Inp-Cit-G˜Hphe-LA-Ahxh-Hynic (not fully specified)
T15 chain: XXGXLA

[16] = target: T16, Ac-POG˜Hphe-L-Ambh-Hynic
T16 chain: PXGXL

[17] = target: T17, Ac-PLG˜Hphe-RLA-Ambh-Hynic
T17 chain: PLGXRLA

[18] = target: T18, Ac-PL-NLys˜LL-Ambh-Ac[C14] (not fully specified)
T18 chain: PLXLL

[19] = target: T19, Ac-DArg-P-Aib-G˜Hphe-LA-Ahxh-Hynic (not fully specified)
T19 chain: RPXGXLA

[20] = target: T20, Ac-PLG˜Hphe-OLA-Ahxh-Hynic
T20 chain: PLGXXLA

[21] = target: T21, Ac-PLG˜S(OBn)-LL-Ahxh-Ac[C14] (not fully specified)
T21 chain: PLGSLL

[22] = target: T22, Ac-P-Cit-G˜Chg-LA-Ahxh-Hynic (not fully specified)
T22 chain: PXGXLA

[23] = target: T23, Ac-P-Cit-G˜Nle-LA-Ahxh-Hynic (not fully specified)
T23 chain: PXGXLA

[24] = target: T24, Ac-NGlu-POG˜Hphe-L-Hynic (not fully specified)
T24 chain: XPXGXL

[25] = target: T25, Ac-P-Cit-G˜S(OBn)-LA-Ahxh-Hynic (not fully specified)
T25 chain: PXGSLA

[26] = target: T26, Ac-PLG˜LR-Ahxh-Hynic (not fully specified)
T26 chain: PLGLR

[27] = target: T27, Ac-PLG˜LY-Ahxh-Ac[C14] (not fully specified)
T27 chain: PLGLY

[28] = target: T28, Ac-PLG˜Hphe-Cit-L-Ahxh-Hynic (not fully specified)
T28 chain: PLGXXL

[29] = target: T29, Ac-P-NMeArg-R˜LTA-Ambh-Hynic (not fully specified)
T29 chain: PRRLTA

[30] = target: T30, Ac-PLG˜Hphe-YL-Ambh-Hynic
T30 chain: PLGXYL

[31] = target: T31, Ac-PRQ˜IT-Ahxh-Hynic
T31 chain: PRQIT

[32] = target: T32, H-γ-DGlu-PLG-LYT-Ahxh-Hynic (not fully specified)
T32 chain: EPLGLYT

[33] = target: T33, Ac-PLG˜LWA-Ahxh-Ac[C14] (not fully specified)
T33 chain: PLGLWA

[34] = target: T34, Ac-PLG˜LAL-Ahxh-Hynic
T34 chain: PLGLAL

[35] = target: T35, Ac-PHG˜Hphe-L-Ahxh-Hynic (not fully specified)
T35 chain: PHGXL

[36] = target: T36, Ac-P-Cit-G˜Tle-LA-Ahxh-Hynic (not fully specified)
T36 chain: PXGXLA

[37] = target: T37, Ac-PLG˜LWA-Ahxh-Hynic (not fully specified)
T37 chain: PLGLWA

[38] = target: T38, Hynic-Ahx-PLG˜Hphe-OLEE-OH
T38 chain: XPLGXXLEE

[39] = target: T39, NLys-PLG˜Hphe-YL-Ambh-Hynic
T39 chain: XPLGXYL

[40] = target: T40, Ac-P-Cit-Aib˜Hphe-LA-Ahxh-Hynic (not fully specified)
T40 chain: PXXXLA

[41] = target: T41, Ac-LRY˜Cha-TA-Ahxh-Hynic (not fully specified)
T41 chain: LRYXTA

[42] = target: T42, Ac-P-Cit-G-Hphe-LA-Hynic
T42 chain: PXGXLA

[43] = target: T43, Ac-PL-NLys˜S(OBn)-LL-Ahxh-Ac[C14] (not fully specified)
T43 chain: PLXSLL

[44] = target: T44, Ac-P-O(Me)2-G˜Hphe-L-Nle-Ahxh-Hynic (not fully specified)
T44 chain: PXGXLX

[45] = target: T45, Ac-Hpro-Cit-G˜Hphe-TA-Ahxh-Hynic (not fully specified)
T45 chain: XXGXTA

[46] = target: T46, Ac-P-DArg-R˜LTA-Ahxh-Hynic (not fully specified)
T46 chain: PRRLTA

[47] = target: T47, Ac-P-Cit-G˜Igl-LA-Ahxh-Hynic (not fully specified)
T47 chain: PXGXLA

[48] = target: T48, Ac-NGlu-PLG˜Hphe-YL-Ahxh-Ac[C14] (not fully specified)
T48 chain: XPLGXYL

[49] = target: T49, Ac-P-Cit-G˜Hphe-LA-Ahxh-Ac[C14] (not fully specified)
T49 chain: PXGXLA

[50] = target: T50, Ac-NLys-PLG˜LL-Ahxh-Hynic (not fully specified)
T50 chain: XPLGLL

[51] = target: T51, Ac-POG˜Hphe-LTR-Ahxh-Hynic
T51 chain: PXGXLTR

B1: human MMP-9 (protein)
chain: MRTPRCGVPDLGRFQTFEGDLKWHHHNITYWIQNYSEDLPRAVIDDAFARAFALWSAVTPLTFTRVYSRDADIVIQFGVAEHGDGYPFDGKDGLLAHAFPPGPGIQGDAHFDDDELWSLGKGVVVPTRFGNADGAACHFPFIFEGRSYSACTTDGRSDGLPWCSTTANYDTDDRFGFCPSERLYTQDGNADGKPCQFPFIFQGQSYSACTTDGRSDGYRWCATTANYDRDKLFGFCPTRADSTVMGGNSAGELCVFPFTFLGKEYSTCTSEGRGDGRLWCATTSNFDSDKKWGFCPDQGYSLFLVAAHEFGHALGLDHSSVPEALMYPMYRFTEGPPLHKDDVNGIRHLYGPRPEPEPRPPTTTTPQPTAPPTVCPTGPPTVHPSERPTAGPTGPPSAGPTGPPTAGPSTATTVPLSPVDDACNVNIFDAIAEIGNQLYLFKDGKYWRFSEGRGSRPQGPFLIADKWPALPRKLDSVFEERLSKKLFFFSGRQVWVYTGASVLGPRRLDKLGLGADVAQVTGALRSGRGKMLLFSGRRLWRFDVKAQMVDPRSASEVDRMFPGVPLDTHDVFQYREKAYFCQDRFYWRVSSRSELNQVDQVGYVTYDILQCPED
For B1, the Kcat/Km [1] was 0 M⁻¹ s⁻¹, the Kcat/Km [2] was 149000 M⁻¹ s⁻¹ and the Kcat/Km [3] was over 500000 M⁻¹ s⁻¹. For the same protein, the Kcat/Km [4] was 512000 M⁻¹ s⁻¹, the Kcat/Km [5] was over 500000 M⁻¹ s⁻¹ and the Kcat/Km [6] was 77500 M⁻¹ s⁻¹. The Kcat/Km [7] was 243000 M⁻¹ s⁻¹, the Kcat/Km [8] was 84800 M⁻¹ s⁻¹ and the Kcat/Km [9] was 167000 M⁻¹ s⁻¹. It also gave a Kcat/Km [10] of 0 M⁻¹ s⁻¹, a Kcat/Km [11] of 147000 M⁻¹ s⁻¹ and a Kcat/Km [12] of 3520 M⁻¹ s⁻¹. For the same protein, the Kcat/Km [13] was over 500000 M⁻¹ s⁻¹, the Kcat/Km [14] was 1880 M⁻¹ s⁻¹ and the Kcat/Km [15] was 1650 M⁻¹ s⁻¹. The Kcat/Km [16] was 22000 M⁻¹ s⁻¹, the Kcat/Km [17] was 4550 M⁻¹ s⁻¹ and the Kcat/Km [18] was 88000 M⁻¹ s⁻¹. For the same protein, the Kcat/Km [19] was 0 M⁻¹ s⁻¹, the Kcat/Km [20] was 14100 M⁻¹ s⁻¹ and the Kcat/Km [21] was over 500000 M⁻¹ s⁻¹. For the same protein, the Kcat/Km [22] was 20700 M⁻¹ s⁻¹, the Kcat/Km [23] was 116000 M⁻¹ s⁻¹ and the Kcat/Km [24] was 613 M⁻¹ s⁻¹. The Kcat/Km [25] was over 250000 M⁻¹ s⁻¹, the Kcat/Km [26] was 143000 M⁻¹ s⁻¹ and the Kcat/Km [27] was 336000 M⁻¹ s⁻¹. For the same protein, the Kcat/Km [28] was 171000 M⁻¹ s⁻¹, the Kcat/Km [29] was 792 M⁻¹ s⁻¹ and the Kcat/Km [30] was 190000 M⁻¹ s⁻¹. For the same protein, the Kcat/Km [31] was 1700 M⁻¹ s⁻¹, the Kcat/Km [32] was 59400 M⁻¹ s⁻¹ and the Kcat/Km [33] was over 750000 M⁻¹ s⁻¹. It also gave a Kcat/Km [34] of 7140 M⁻¹ s⁻¹, a Kcat/Km [35] of 4430 M⁻¹ s⁻¹ and a Kcat/Km [36] of 0 M⁻¹ s⁻¹. The Kcat/Km [37] was over 500000 M⁻¹ s⁻¹, the Kcat/Km [38] was 2980 M⁻¹ s⁻¹ and 1670 M⁻¹ s⁻¹ and the Kcat/Km [39] was 264000 M⁻¹ s⁻¹. It also gave a Kcat/Km [40] of 0 M⁻¹ s⁻¹, a Kcat/Km [41] of 811 M⁻¹ s⁻¹ and a Kcat/Km [42] of over 250000 M⁻¹ s⁻¹. For the same protein, the Kcat/Km [43] was 271000 M⁻¹ s⁻¹, the Kcat/Km [44] was 27000 M⁻¹ s⁻¹ and the Kcat/Km [45] was 160000 M⁻¹ s⁻¹. The Kcat/Km [46] was 0 M⁻¹ s⁻¹, the Kcat/Km [47] was 0 M⁻¹ s⁻¹ and the Kcat/Km [48] was 213000 M⁻¹ s⁻¹. The Kcat/Km [49] was 652000 M⁻¹ s⁻¹, the Kcat/Km [50] was 83200 M⁻¹ s⁻¹ and the Kcat/Km [51] was 105000 M⁻¹ s⁻¹.

B2: MMP-2 (protein)
chain: APSPIIKFPGDVAPKTDKELAVQYLNTFYGCPKESCNLFVLKDTLKKMQKFFGLPQTGDLDQNTIETMRKPRCGNPDVANYNFFPRKPKWDKNQITYRIIGYTPDLDPETVDDAFARAFQVWSDVTPLRFSRIHDGEADIMINFGRWEHGDGYPFDGKDGLLAHAFAPGTGVGGDSHFDDDELWTLGEGQVVRVKYGNADGEYCKFPFLFNGKEYNSCTDTGRSDGFLWCSTTYNFEKDGKYGFCPHEALFTMGGNAEGQPCKFPFRFQGTSYDSCTTEGRTDGYRWCGTTEDYDRDKKYGFCPETAMSTVGGNSEGAPCVFPFTFLGNKYESCTSAGRSDGKMWCATTANYDDDRKWGFCPDQGYSLFLVAAHEFGHAMGLEHSQDPGALMAPIYTYTKNFRLSQDDIKGIQELYGASPDIDLGTGPTPTLGPVTPEICKQDIVFDGIAQIRGEIFFFKDRFIWRTVTPRDKPMGPLLVATFWPELPEKIDAVYEAPQEEKAVFFAGNEYWIYSASTLERGYPKPLTSLGLPPDVQRVDAAFNWSKNKKTYIFAGDKFWRYNEVKKKMDPGFPKLIADAWNAIPDNLDAVVDLQGGGHSYFFKGAYYLKLENQSLKSVKFGSIKSDWLGC
Protein B2 has a Kcat/Km [1] of 0 M⁻¹ s⁻¹, a Kcat/Km [2] of 85100 M⁻¹ s⁻¹ and a Kcat/Km [3] of 22600 M⁻¹ s⁻¹. It also gave a Kcat/Km [4] of 404000 M⁻¹ s⁻¹, a Kcat/Km [5] of 413000 M⁻¹ s⁻¹ and a Kcat/Km [6] of 53800 M⁻¹ s⁻¹. The Kcat/Km [7] was 364000 M⁻¹ s⁻¹, the Kcat/Km [8] was over 250000 M⁻¹ s⁻¹ and the Kcat/Km [9] was 182000 M⁻¹ s⁻¹. The Kcat/Km [10] was 0 M⁻¹ s⁻¹, the Kcat/Km [11] was 120000 M⁻¹ s⁻¹ and the Kcat/Km [12] was 2400 M⁻¹ s⁻¹. The Kcat/Km [13] was over 500000 M⁻¹ s⁻¹, the Kcat/Km [14] was 3100 M⁻¹ s⁻¹ and the Kcat/Km [15] was 4580 M⁻¹ s⁻¹. It also gave a Kcat/Km [16] of 77700 M⁻¹ s⁻¹, a Kcat/Km [17] of 197 M⁻¹ s⁻¹ and a Kcat/Km [18] of 68600 M⁻¹ s⁻¹. The Kcat/Km [19] was 18600 M⁻¹ s⁻¹, the Kcat/Km [20] was 29500 M⁻¹ s⁻¹ and the Kcat/Km [21] was 473000 M⁻¹ s⁻¹. It also gave a Kcat/Km [22] of 14400 M⁻¹ s⁻¹, a Kcat/Km [23] of 174000 M⁻¹ s⁻¹ and a Kcat/Km [24] of 265 M⁻¹ s⁻¹. The Kcat/Km [25] was over 250000 M⁻¹ s⁻¹, the Kcat/Km [26] was 162000 M⁻¹ s⁻¹ and the Kcat/Km [27] was 283000 M⁻¹ s⁻¹. It also gave a Kcat/Km [28] of 157000 M⁻¹ s⁻¹, a Kcat/Km [29] of 879 M⁻¹ s⁻¹ and a Kcat/Km [30] of 63200 M⁻¹ s⁻¹. For the same protein, the Kcat/Km [31] was 898 M⁻¹ s⁻¹, the Kcat/Km [32] was 153000 M⁻¹ s⁻¹ and the Kcat/Km [33] was 712000 M⁻¹ s⁻¹. It also gave a Kcat/Km [34] of 4380 M⁻¹ s⁻¹, a Kcat/Km [35] of 22100 M⁻¹ s⁻¹ and a Kcat/Km [36] of 164 M⁻¹ s⁻¹. The Kcat/Km [37] was over 500000 M⁻¹ s⁻¹, the Kcat/Km [38] was 83900 M⁻¹ s⁻¹ and 42500 M⁻¹ s⁻¹ and the Kcat/Km [39] was 121000 M⁻¹ s⁻¹. It also gave a Kcat/Km [40] of 275 M⁻¹ s⁻¹, a Kcat/Km [41] of 0 M⁻¹ s⁻¹ and a Kcat/Km [42] of over 250000 M⁻¹ s⁻¹. It also gave a Kcat/Km [43] of 165000 M⁻¹ s⁻¹, a Kcat/Km [44] of 567000 M⁻¹ s⁻¹ and a Kcat/Km [45] of 99600 M⁻¹ s⁻¹. The Kcat/Km [46] was 6880 M⁻¹ s⁻¹, the Kcat/Km [47] was 189 M⁻¹ s⁻¹ and the Kcat/Km [48] was 351000 M⁻¹ s⁻¹. For the same protein, the Kcat/Km [49] was over 750000 M⁻¹ s⁻¹, the Kcat/Km [50] was 76300 M⁻¹ s⁻¹ and the Kcat/Km [51] was over 500000 M⁻¹ s⁻¹.

Source: patent US20050106100
